From IntAct's records for PubMed 25910212

B1: Emerin (Homo sapiens), P50402 (parent)
chain: MDNYADLSDTELTTLLRRYNIPHGPVVGSTRRLYEKKIFEYETQRRRLSPPSSSAASSYSFSDLNSTRGDADMYDLPKKEDALLYQSKGYNDDYYEESYFTTRTYGEPESAGPSRAVRQSVTSFPDADAFHHQVHDDDLLSSSEEECKDRERPMYGRDSAYQSITHYRPVSASRSSLDLSYYPTSSSTSFMSSSSSSSSWLTRRAIRPENRAPGAGLGQDRQVPLWGQLLLFLVFVIVLFFIYHFMQAEEGNPF
partner: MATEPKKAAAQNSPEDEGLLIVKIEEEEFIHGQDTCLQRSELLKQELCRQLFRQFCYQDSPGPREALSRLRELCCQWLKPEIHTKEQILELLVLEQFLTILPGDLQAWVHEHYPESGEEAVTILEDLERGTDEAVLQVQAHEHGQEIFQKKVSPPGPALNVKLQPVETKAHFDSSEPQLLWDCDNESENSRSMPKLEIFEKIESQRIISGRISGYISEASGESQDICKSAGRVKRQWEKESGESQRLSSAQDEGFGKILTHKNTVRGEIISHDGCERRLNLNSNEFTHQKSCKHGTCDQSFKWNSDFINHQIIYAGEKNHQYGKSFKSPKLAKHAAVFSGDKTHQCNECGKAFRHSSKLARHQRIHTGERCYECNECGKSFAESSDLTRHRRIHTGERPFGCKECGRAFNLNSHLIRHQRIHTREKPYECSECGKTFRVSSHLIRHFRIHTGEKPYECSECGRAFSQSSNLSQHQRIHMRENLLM
B2: Emerin (Homo sapiens), P50402 (parent)
chain: B1 chain
partner: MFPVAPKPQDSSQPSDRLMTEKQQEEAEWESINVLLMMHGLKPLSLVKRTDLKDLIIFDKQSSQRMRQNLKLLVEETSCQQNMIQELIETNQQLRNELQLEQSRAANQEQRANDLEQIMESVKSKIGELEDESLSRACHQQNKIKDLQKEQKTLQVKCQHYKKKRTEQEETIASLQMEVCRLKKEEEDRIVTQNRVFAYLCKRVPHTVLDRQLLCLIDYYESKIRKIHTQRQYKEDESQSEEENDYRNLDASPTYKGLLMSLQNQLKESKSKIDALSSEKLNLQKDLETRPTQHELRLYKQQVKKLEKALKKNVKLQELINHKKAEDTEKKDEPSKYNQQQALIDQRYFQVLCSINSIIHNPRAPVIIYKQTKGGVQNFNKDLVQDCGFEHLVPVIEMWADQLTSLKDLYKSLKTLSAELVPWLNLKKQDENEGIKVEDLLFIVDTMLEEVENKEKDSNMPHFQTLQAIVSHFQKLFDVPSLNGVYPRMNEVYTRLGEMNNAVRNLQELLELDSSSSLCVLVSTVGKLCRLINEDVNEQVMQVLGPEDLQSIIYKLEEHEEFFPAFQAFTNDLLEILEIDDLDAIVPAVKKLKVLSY
B3: U4/U6 small nuclear ribonucleoprotein Prp31 (Homo sapiens), Q8WWY3 (parent)
chain: MSLADELLADLEEAAEEEEGGSYGEEEEEPAIEDVQEETQLDLSGDSVKTIAKLWDSKMFAEIMMKIEEYISKQAKASEVMGPVEAAPEYRVIVDANNLTVEIENELNIIHKFIRDKYSKRFPELESLVPNALDYIRTVKELGNSLDKCKNNENLQQILTNATIMVVSVTASTTQGQQLSEEELERLEEACDMALELNASKHRIYEYVESRMSFIAPNLSIIIGASTAAKIMGVAGGLTNLSKMPACNIMLLGAQRKTLSGFSSTSVLPHTGYIYHSDIVQSLPPDLRRKAARLVAAKCTLAARVDSFHESTEGKVGYELKDEIERKFDKWQEPPPVKQVKPLPAPLDGQRKKRGGRRYRKMKERLGLTEIRKQANRMSFGEIEEDAYQEDLGFSLGHLGKSGSGRVRQTQVNEATKARISKTLQRTLQKQSVVYGGKSTIRDRSSGTASSVAFTPLQGLEIVNPQAAEKKVAEANQKYFSSMAEFLKVKGEKSGLMST
partner: B2 partner
B4: Elongation factor Ts, mitochondrial (Homo sapiens), P43897-2 (parent)
chain: MSLLRSLRVFLVARTGSYPAGSLLRQSPQPRHTFYAGPRLSASASSKELLMKLRRKTGYSFVNCKKALETCGGDLKQAEIWLHKEAQKEGWSKAAKLQGRKTKEGLIGLLQEGNTTVLVEVNCETDFVSRNLKFQLLVQQVALGTMMHCQTLKDQPSAYSKVQWLTPVNLALWEAEAGGSLEGFLNSSELSGLPAGPDREGSLKDQLALAIGKLGENMILKRAAWVKVPSGFYVGSYVHGAMQSPSLHKLVLGKYGALVICETSEQKTNLEDVGRRLGQHVVGMAPLSVGSLDDEPGGEAETKMLSQPYLLDPSITLGQYVQPQGVSVVDFVRFECGEGEEAAETE
partner: B2 partner
B5: DNA mismatch repair protein Mlh1 (Homo sapiens), P40692 (parent)
chain: MSFVAGVIRRLDETVVNRIAAGEVIQRPANAIKEMIENCLDAKSTSIQVIVKEGGLKLIQIQDNGTGIRKEDLDIVCERFTTSKLQSFEDLASISTYGFRGEALASISHVAHVTITTKTADGKCAYRASYSDGKLKAPPKPCAGNQGTQITVEDLFYNIATRRKALKNPSEEYGKILEVVGRYSVHNAGISFSVKKQGETVADVRTLPNASTVDNIRSIFGNAVSRELIEIGCEDKTLAFKMNGYISNANYSVKKCIFLLFINHRLVESTSLRKAIETVYAAYLPKNTHPFLYLSLEISPQNVDVNVHPTKHEVHFLHEESILERVQQHIESKLLGSNSSRMYFTQTLLPGLAGPSGEMVKSTTSLTSSSTSGSSDKVYAHQMVRTDSREQKLDAFLQPLSKPLSSQPQAIVTEDKTDISSGRARQQDEEMLELPAPAEVAAKNQSLEGDTTKGTSEMSEKRGPTSSNPRKRHREDSDVEMVEDDSRKEMTAACTPRRRIINLTSVLSLQEEINEQGHEVLREMLHNHSFVGCVNPQWALAQHQTKLYLLNTTKLSEELFYQILIYDFANFGVLRLSEPAPLFDLAMLALDSPESGWTEEDGPKEGLAEYIVEFLKKKAEMLADYFSLEIDEEGNLIGLPLLIDNYVPPLEGLPIFILRLATEVNWDEEKECFESLSKECAMFYSIRKQYISEESTLSGQQSEVPGSIPNSWKWTVEHIVYKALRSHILPPKHFTEDGNILQLANLPDLYKVFERC
partner: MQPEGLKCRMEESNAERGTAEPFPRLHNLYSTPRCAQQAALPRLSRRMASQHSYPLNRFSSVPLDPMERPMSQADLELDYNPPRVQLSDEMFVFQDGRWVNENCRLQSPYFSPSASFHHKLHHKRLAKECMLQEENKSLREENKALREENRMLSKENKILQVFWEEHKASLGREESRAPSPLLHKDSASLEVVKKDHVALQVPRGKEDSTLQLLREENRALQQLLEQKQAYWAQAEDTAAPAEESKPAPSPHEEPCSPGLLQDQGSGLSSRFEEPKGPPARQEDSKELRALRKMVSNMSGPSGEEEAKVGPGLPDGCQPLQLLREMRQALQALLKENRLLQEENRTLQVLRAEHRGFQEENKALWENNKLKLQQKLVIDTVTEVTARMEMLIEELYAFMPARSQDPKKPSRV
B6: Corrinoid adenosyltransferase MMAB (Homo sapiens), Q96EY8 (parent)
chain: MAVCGLGSRLGLGSRLGLRGCFGAARLLYPRFQSRGPQGVEDGDRPQPSSKTPRIPKIYTKTGDKGFSSTFTGERRPKDDQVFEAVGTTDELSSAIGFALELVTEKGHTFAEELQKIQCTLQDVGSALATPCSSAREAHLKYTTFKAGPILELEQWIDKYTSQLPPLTAFILPSGGKISSALHFCRAVCRRAERRVVPLVQMGETDANVAKFLNRLSDYLFTLARYAAMKEGNQEKIYMKNDPSAESEGL
partner: B5 partner

Variants of: B1
Settings: with zn165_human ZNF165, P49910

Variant	effect of a mutation on the interaction
S54F	with no effect

Variants of: B2
Settings: with cep70_human CEP70, Q8NHQ1

Variant	effect of a mutation on the interaction
P183T	with no effect
S54F	with no effect
D72V	with no effect
P183H	with no effect

Variants of: B3
Settings: with cep70_human CEP70, Q8NHQ1

Variant	effect of a mutation on the interaction
L107V	with no effect

Variants of: B4
Settings: with cep70_human CEP70, Q8NHQ1

Variant	effect of a mutation on the interaction
R333W	disrupting interaction strength

Variants of: B5
Settings: with CBY2, Q8NA61-2

Variant	effect of a mutation on the interaction
S44F	disrupting interaction strength
G244D	with no effect
R472I	with no effect

Variants of: B6
Settings: with CBY2, Q8NA61-2

Variant	effect of a mutation on the interaction
R186Q	with no effect
